# B1: K401-clip labeled with Alexa-647 (domain or fragment)
# chain: not shown
# modifications: Alexa-647 label (labeling efficiencies of 15% monomer and 58% monomer in two preparations)
# Target: the molecule itself
# Assay: single-molecule photobleaching and fluorescence intensity analysis
protein,measurement,value
B1,stoichiometry N,2
